Experimental data from article PMC9105436.

Molecular target: coconut protein (coconut)
Test: ITC; Malvern MicroCal PEAQ-ITC; cell 200 uL with the low-concentration solution, syringe with the high-concentration solution (not told which held which); 13 injections of 3 uL; both solutions dialysed; fit with two sets of constants (N1/N2, K1, K2)

How did the K1 turn out when gelatin was run?
Its K1 is 4.33 µM.

What about the K2 of the same substance?
The K2 was 136 µM.

What about the N1 of the same substance?
Its N1 is 2.69.

And the N2?
Its N2 is 1.51.

What about the dH1 of the same substance?
The dH1 was -2.75 kcal/mol.

What about the dH2 of the same substance?
Its dH2 is -1.52 kcal/mol.
